This assay concerns the target taxol-stabilized microtubules (MTs) (UniProt P02550). Put plainly: co-sedimentation.

Ends that are not written are not given here.

The values that follow come from paper PMC8246641.

B1: GST-ABS6^329–387 (DUF4005 domain of ABS6/AtIQD16, N-terminal GST tag) (domain or fragment)
chain: {GST}-RSASPRIPCSPSSMQPNYMSATESAKAKARTQSTPRRRPMTAKKRLCYAEEESLRSPSF
modifications: cysteine pairing not given here
Take B1: the Kd amounted to 996 nM.

Usually Kd stands for the equilibrium constant for the complex coming apart.
